Assay results reported in the RNAGym collection of RNA variant scans (doi:10.1073/pnas.2313332121).
Fewer inactive variants are shown than the library holds.

B1: TPR 5TU (parent)
chain: GGAUCUUCUCGAUCUAACAAAAAAGACAAAUCUGCCACAAAGCUUGAGAGCAUCUUCGGAUGCAGAGGCGGCAGCCUUCGGUGGCGCGAUAGCGCCAACGUUCUCAACUAUGACACGCAAAACGCGUGCUCCGUUGAAUGGAGUUUAUCAUG

Variants of: B1
Assay: polymerase ribozyme fitness, log enrichment relative to wild type (log ratio); higher = more active; in vitro selection for triplet polymerase activity
Procedure, shortened: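 One round of in vitro selection, in triplicate, was applied to PCR-built, transcribed mutant libraries of each subunit of a heterodimeric triplet polymerase ribozyme. The steps were annealing with a biotinylated primer, partner subunit and triplets, incubation frozen at −7 °C, gel excision of extended constructs, streptavidin-bead capture and RT-PCR. Fitness is the logarithm, base 2, of genotype enrichment over wild-type enrichment from inverse-variance-weighted replicate averages of Illumina-sequenced inputs and outputs, keeping genotypes with ≥10 input reads and ≥1 read per output.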

Variant	polymerase ribozyme fitness (log ratio)
GGAUAUUCUCGAUCUAACAAAAAAGACAAAUCUGCCACAAAGCUUGAGAGCAUCUUCGGAUGCAGAGGCGGCAGCCUUCGGUGGCGCGAUAACGCCAACGUUCUCAACUAUGACACGCAAAACGCGUGCUCCGUUGAAUGGAGUUUAUCAUG [C5A G92A]	-1.42
GGAUAUUCUCGAUCUAACAAAAAAGACAAAUCUGCCACAAAGCUUGAGAACAUCUUCGGAUGCAGAGGCGGCAGCCUUCGGUGGCGCGAUAGCGCCAACGUUCUUAACUAUGACAAGCAAAACGCGUGCUCCGUUGAAUGGAGUUUAUCAUG [C5A G50A C105U C116A]	-1.3
GGAUAUUCUCGAUCUAACAAAAAAGACAAAUCUGCCACAAAGCUUGAGAGCAUCUUCGGAUGCAGAGGCGGCAGCCUUCGGUGGCGCGAUAGCGCCAACGUUAUCAACUAUGACACGCAAAACGCGUGCUCCGUUGAAUGGAGUUUAUCAUG [C5A C103A]	-1.35
GGAUAUUCUCGAUCUAACAAAAAAGACAAAUCUGCCACAAAGCUUGAGAGCAUCUUCGGAUCCAGACGCGGCAGCCUUCGGUGGCGCGAUAGCACCAACGUUCUCUACUAUGACACGCAAAACGCGUGCUCCGUUGAAUGGAGUUUAUCAUG [C5A G62C G67C G94A A106U]	≤ -4.2
GGAUAUUCUCGAUCUAACAAAAAAGACAAAUCUGCCACAAAGCUUGAGAGCAUCUUCGGAUGCAGAGGCGGCAGCCUUCGAUGGCGCGAUAGCGCCAACGUUCUCAACUAUGACACGCAAAACGCGUGCUCCGUUGAAUGGAGUUUAUCAUG [C5A G81A]	0.566
GGAUAUUCUCGAUCUAACAAAAAAGACAAAUCUGCCACAAAGCUUGAGAGCAUUAUCGGAUGCAGAGGCGGCAGCCUUCGGUGGCGCGAUAGCGGAAACGUUCUCAACUAUGACACGCAAAACGCGUGCUCCGUUGAAUGGAGUUUAUCAUG [C5A C54U U55A C95G C96A]	-4.05
GGAUAUUCUCGAUCUAACAAAAAAGACAAAUCUGCCACAAAGCUUGAGAGCAUCUUCGGAUGCAGAGGCGGCAGCCUUCGGUGGCUCGAUAGCGCCAACGUUCUCAGCUAUGACACGCAAAACGCGUGCUCCGUUGAAUGGAGUUUAUCAUA [C5A G86U A107G G152A]	≤ -4.2
GGAUAUUCUCGAUCUAACAAAAAAGACAAAUCUGCCACAAAGCUUGAGAGCAUCUUCGGAUGCAGAGGCGGCAGCCUUCGGUGGUCCGAUAGCGCCAACGUUCUCAACUAUGACACGCCCAACGCGUGCUCCGUUGAAUGGAGUUUAUCAUG [C5A C85U G86C A119C A120C]	-3.07
GGAUAUUCUCGAUCUAACAAAAAAGACAAAUCUGCCACAAAGCUUGAGAGCAUCUUCGGAUGCAGACGCGGCAGCCUUCGGUGGCGCGAUAGCGCCAACGUUAUCAACUAUGACACGCAAAACGCGUGCUCCGUUGAAUGUAGUUUAUCCUG [C5A G67C C103A G141U A150C]	≤ -4.2
GGAUAUUCUCGAUCUAACAAAAAAGACAAAUAUGCCACAAAGCUUGAGAGCAUCUACGGAUGCAGAGGCGGCAGCCUUCGGUGGUGCGAUAGCGCCAACGUUCUCAACUAUGCCACGCAAAACGCGUGCUCCGUUGAAUGGAGUUUAUCAUG [C5A C32A U56A C85U A113C]	≤ -4.2
GGAUAUUCUCGAUCUAACAAAAAAGACAAAUCUGCCACAAAGCUUGACAGCAUCUUCGGAUGCAGAGGCGGCAGCCUUCGGUGGCGCGAUAGCGCCAACGUUCUCAACUAUGACACGCAAAACGCGUGCUCCGUUGAAUGGAGUUUAUCAUG [C5A G48C]	-0.334
GGAUAUUCUCGAUCUAACAAAAAAGACAAAUCUGCCACAAAGCUUGAGAGUAUCUUCGGAUGCAGAGGCGGCAGCCUUCGGUGGCGCGAUAGCGCCAACGUUCUCAACUAUGACACGCAAAACGCGUGCUCCGUUGAAUGGAGUUUAUCAUG [C5A C51U]	-0.595
GGAUAUUCUCGAUCUAACAAAAAAGACAAAUCUGCCACAAAGCUUGAGAGCAUCUUUGGAUGCAGAGGCGGCAGCCUUCGGUGGUGCGAUAGCGCCAACGUUCUCAACUAUGACACGCAAAACGCGUGCUCCGUUGAAUGGAGUUUAUCAUG [C5A C57U C85U]	0.39
GGAUAUUCUCGAUCUAACAAAAAAGACAAAUCUGCCACAAAGCUUGAGAGCAUCUUCGGAUGCAGAGGCGGCAGCCUUCGGUGGCGCGAUAGCGCCAACGUUCUCAACUAUGACACGCAAAACGCGUGCUCCGUUGAAUGUAGUUUAUCAUG [C5A G141U]	0.735
GGAUAUUCUCGAUCUAACAAAAAAGACAAAUCUGCCAUAAAGCUUGAGAGCAUCUUCGAAUGCAGAGGCGGCAGCCUUCGGUGGCGGGAUAGCGCCAACGUUAUCAACUAUGACACGCAAUACGCAUGCUCCGUUGAAUGGAGUUCAUCAUG [C5A C38U G59A C87G C103A A121U G126A U146C]	≤ -4.2
GGAUAUUCUCGAUCUAACAAAAAAGACAAAUCUGCCAUAAAGCUUGAGAGCAUCUUCGGAUGCAGCGGCGGUAGCCUUAGGUGGCGCGAUAGCGCAAACGUUCUCAACUAUGACACACAAAACGCGUGCUCCGUUGAAUGGAGUUUAUCAUG [C5A C38U A66C C72U C79A C96A G117A]	≤ -4.2
GGAUAUUCUCGAUCUAACAAAAAAGACAAAUCUGCCACAAAGCUUGAGAGCAUCUUCGGAUGCAGAGGCGGCAGCCUUCGGUGGCCCGAUAUCGCCAACGUUCUCAACUAUGACACGCAAAACGCGUGCUCCGUUGAAUGGAGUUUAUCAUG [C5A G86C G92U]	-3.93
GGAUAUUCUCGAUCUAACAAAAAAGACAAAUCUGCCACAAAGCUUGAGAGCAUCUUCGGAUGCAGAGGCGGCAGCCUUCGGUGGUGCGAUAGCGCCAACGUUCUCAACUAUGACACGCAAAACGCGUGCUCCGUUGAAUGGAGUUUAUCAUG [C5A C85U]	-0.371
GGAUAUUCUCGAUCUAACAAAAAAGACAAAUCUGCCACAAAGCUUGAGAGCAUCUUUGGAUGCAGAGGCGGCAGCCUUCGCUGGCGCGAUAGCCCCAACGUUCUCAAAUAUGACACGCAAAACGCGUGCUCCGUUGAAUGGACUUUAUCAUG [C5A C57U G81C G94C C108A G143C]	≤ -4.2
